Literature values as cited in article PMC10108826.

Target: sIL-6R soluble ECD (Homo sapiens) (UniProt P08887)
Chain of UniProt P08887 (P08887 20-355): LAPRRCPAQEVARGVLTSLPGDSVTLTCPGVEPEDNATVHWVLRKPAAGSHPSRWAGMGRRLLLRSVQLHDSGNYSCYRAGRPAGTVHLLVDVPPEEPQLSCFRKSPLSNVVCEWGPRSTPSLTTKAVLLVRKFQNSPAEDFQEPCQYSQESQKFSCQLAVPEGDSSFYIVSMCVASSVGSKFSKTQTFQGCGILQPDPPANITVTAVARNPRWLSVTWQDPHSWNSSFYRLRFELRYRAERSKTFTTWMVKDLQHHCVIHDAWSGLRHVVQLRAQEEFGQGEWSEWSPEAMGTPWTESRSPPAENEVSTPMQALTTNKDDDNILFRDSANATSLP

IL-6 (from UniProt P05231)
Kd: 1 nM
